The target of the assay is glutamate metabotropic receptor 3 (GRM3), endogenous (mouse (endogenous in GT1-7 neurons and …, UniProt Q9QYS2 23-879)). Nature of the assay: cell-based or functional assay.
Chain of glutamate metabotropic receptor 3 (GRM3), endogenous (mouse (Q9QYS2 23-879): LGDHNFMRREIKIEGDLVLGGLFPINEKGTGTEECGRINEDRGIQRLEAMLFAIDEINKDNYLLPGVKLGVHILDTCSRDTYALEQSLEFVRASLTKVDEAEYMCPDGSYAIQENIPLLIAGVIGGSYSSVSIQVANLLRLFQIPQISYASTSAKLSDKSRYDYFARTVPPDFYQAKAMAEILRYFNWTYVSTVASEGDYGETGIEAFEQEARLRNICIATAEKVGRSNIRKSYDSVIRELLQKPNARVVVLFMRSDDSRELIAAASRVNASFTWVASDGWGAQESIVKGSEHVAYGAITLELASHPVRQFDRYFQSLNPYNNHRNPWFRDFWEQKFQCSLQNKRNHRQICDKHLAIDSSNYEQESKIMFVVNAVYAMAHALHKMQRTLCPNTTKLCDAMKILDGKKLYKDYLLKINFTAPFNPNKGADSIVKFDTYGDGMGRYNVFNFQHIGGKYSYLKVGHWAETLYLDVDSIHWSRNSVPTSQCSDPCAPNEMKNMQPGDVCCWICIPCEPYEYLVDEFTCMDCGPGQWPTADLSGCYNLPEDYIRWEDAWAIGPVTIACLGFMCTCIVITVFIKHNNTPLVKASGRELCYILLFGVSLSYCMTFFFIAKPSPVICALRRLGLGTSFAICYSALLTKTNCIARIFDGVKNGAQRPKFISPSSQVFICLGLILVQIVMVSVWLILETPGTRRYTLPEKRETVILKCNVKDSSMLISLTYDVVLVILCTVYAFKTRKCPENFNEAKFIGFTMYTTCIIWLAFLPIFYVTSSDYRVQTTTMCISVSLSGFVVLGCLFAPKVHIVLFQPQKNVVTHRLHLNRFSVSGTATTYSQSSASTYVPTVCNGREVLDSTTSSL

B1: recombinant mouse Raptin protein with a His-tag (ligand)
chain: AEELHYPQGEHRADYDREALLGVQEDVDEYVKLGHEEQQRRLQSIIKKIDSDSDGFLTENELSQWIQMSFKHYAMQEAKQQFVEYDKNSDGAVTWDEYNIQMYDRVIDFDENTALDDTEEGSFRQLHLKDKKRFEKANQDSGPGLSLEEFIAFEHPEEVDYMTEFVIQEALEEHDKNGDGFVSLEEFLGDYRRDPTANEDPEWILVEKDRFVNDYDKDNDGR
For the molecule B1, the “p-AKT accumulation in GT1-7 cells expressing GRM3 (EC50 of Raptin)” value amounted to 0.31 ng/mL.

The values are drawn from publication PMC11909135, “Raptin, a sleep-induced hypothalamic hormone, suppresses appetite and obesity” (Cell Research, 2025).
